In US20180250395A1 (Janssen / Centocor, published 2018):
Substitutions are numbered along the chain they refer to.

B1: C47B147 (antibody, V domains shown)
VH: EVQLVQSGAEVKKPGESLKISCKGSGYTFTDYNMHWVRQMPGKGLEWMGDIYPYNGGTGYNQKFKGQVTISADKSISTAYLQWSSLKASDTAMYYCARGGWHAMDSWGQGTLVTVSS
VL: DIVMTQSPDSLAVSLGERATINCRSRQSIVHTNRYTYLAWYQQKPGQPPKLLIYKVSNRFSGVPDRFSGSGSGTDFTLTISSLQAEDVAVYYCFQGSHVPYTFGGGTKLEIK
notes: HFA variant of C47B116; human IgG2sigma/kappa
B2: C47B151 (antibody, V domains shown)
VH: QVQLVQSGAEVKKPGSSVKVSCKASGYTFTDYNMHWVRQAPGQGLEWMGDIYPYNGGTGYNQKFKGRVTITADESTSTAYMELSSLRSEDTAVYYCARGGWHAMDSWGQGTLVTVSS
VL: B1 VL
notes: as for B1
B3: C47B157 (human IgG2sigma) (antibody, V domains shown)
VH: B2 VH with S16A, I70M, A72R, E74T, A79V
VL: DIVMTQSPLSLPVTPGEPASISCRSRQSIVHTNRYTYLAWYLQKPGQSPQLLIYKVSNRFSGVPDRFSGSGSGTDFTLKISRVEAEDVGVYYCFQGSHVPYTFGGGTKLEIK
notes: HFA variant of C47B116; human IgG2sigma/kappa; also called IgG2 Fc-silent C47B157
B4: C47B161 (human IgG2sigma) (antibody, V domains shown)
VH: B2 VH with S16A, G44R, A72R, E74T, T76A
VL: B3 VL
notes: HFA variant of C47B116; human IgG2sigma/kappa; also called IgG2 Fc-silent C47B161
B5: C47B239 (antibody, V domains shown)
VH: EVQLVQSGAEVKKPGESLKISCKGSGYSFTSYWIGWVRQMPGKGLEWMGIIYPGDSDTRYSPSFQGQVTISADKSISTAYLQWSSLKASDTAMYYCARVGRFASHQLDYWGQGTLVTVSS
VL: EIVLTQSPATLSLSPGERATLSCRASQSVSNRLAWYQQKPGQAPRLLIYGASNRATGIPARFSGSGSGTDFTLTISSLEPEDFAVYYCQQGRSWPFTFGQGTKVEIK
notes: human IgG2sigma/kappa
B6: C47B240 (antibody, V domains shown)
VH: B5 VH
VL: B5 VL with L33Q, Y49H, G50S
notes: human IgG2sigma/kappa
B7: C47B241 (antibody, V domains shown)
VH: B5 VH with T30D, S31D, Y32S, M93V
VL: B5 VL
notes: human IgG2sigma/kappa
B8: C47B242 (antibody, V domains shown)
VH: B5 VH with S31D, Y32S, M93V
VL: B5 VL
notes: human IgG2sigma/kappa
B9: C47B243 (antibody, V domains shown)
VH: B5 VH with S31D, M93V
VL: B5 VL
notes: human IgG2sigma/kappa
B10: C47B244 (antibody, V domains shown)
VH: B5 VH with T30D, S31D, M93V
VL: B5 VL
notes: human IgG2sigma/kappa
B11: C47B148 (antibody, V domains shown)
VH: B1 VH
VL: EIVLTQSPATLSLSPGERATLSCRSRQSIVHTNRYTYLAWYQQKPGQAPRLLIYKVSNRFSGIPARFSGSGSGTDFTLTISSLEPEDFAVYYCFQGSHVPYTFGGGTKLEIK
notes: as for B1
B12: C47B152 (antibody, V domains shown)
VH: B2 VH
VL: B11 VL
notes: as for B1
B13: C47B161 Fab (Fab, V domains shown)
VH: B2 VH with S16A, G44R, A72R, E74T, T76A
VL: B3 VL
B14: C47B167 Fab (Fab, V domains shown)
VH: EVQLVQSGAEVKKPGESLKISCKGSGYTFTSYWMQWVRQMPGKGLEWMGEINPSNGRTDYNEKFRGQVTISADKSISTAYLQWSSLKASDTAMYYCARQGGSGYGNSYGFFDVWGQGTTVTVSS
VL: EIVLTQSPATLSLSPGERATLSCRASSSVSYMHWYQQKPGQAPRLLIYDTSRLASGIPARFSGSGSGTDFTLTISSLEPEDFAVYYCQQWRSNPYTFGGGTKVEIK
notes: His-tagged Fab from HEK293
B15: C47B222 Fab (Fab, V domains shown)
VH: B5 VH with S31D, M93V
VL: B5 VL with S30N, Y49H, G50W, N53T, T56I, R92A
notes: His-tagged Fab from HEK293
B16: C47B227 Fab (Fab, V domains shown)
VH: B5 VH with T30D, S31D, M93V
VL: B5 VL with S30G, N31S, G50W, N53T, R92A, S93Y
notes: His-tagged Fab from HEK293
B17: B6H12.2 Fab (Fab, V domains shown)
VH: EVKLVESGGDLVKPGGSLKLSCAASGFTFSGYGMSWVRQTPDKRLEWVATITSGGTYTYYPDSVKGRFTISRDNAKNTLYLQIDSLKSEDTAIYFCARSLAGNAMDYWGQGTSVTVSS
VL: DIVMTQSPATLSVTPGDRVSLSCRASQTISDYLHWYQQKSHESPRLLIKFASQSISGIPSRFSGSGSGSDFTLSINSVEPEDVGVYYCQNGHGFPRTFGGGTKLEIK
notes: Fab used for co-crystallization

target: T1, recombinant human CD47 extracellular domain (ECD), His-tagged, monomer (human, UniProt Q08722 19-141); assay: ProteOn SPR
T1 construct: C-terminal 6xHis tag; monomeric fraction from Superdex 200; also called human CD47 ECD; CD47-ECD monomer

B1 and B2 cannot be ordered by “fold decrease of affinity against parent C47B116” value: > 6 fold for the first, > 6 fold for the second.

B3 and B4 cannot be ordered by “fold change of affinity against parent C47B116” value: ≤ 5 fold for the first, ≤ 5 fold for the second.

target: T2, Cyno CD47 ECD protein, His-tagged, monomer (cyno); assay: ProteOn SPR; cyno KD / human KD
T2 construct: extracellular domain; also called cynomolgus CD47

Point of comparison: B1, “KD Ratio Cyno/Human” value 1.4. Against it:
- B2 — the same, 1.4
- B3 — lower, 1.1
- B4 — lower, 1

target: T2, Cyno CD47 ECD protein, His-tagged, …; assay: ProteOn SPR; cyno KD / human KD; remark: another data set of the same source

Point of comparison: B8, “KD Ratio Cyno/Human” value 1. Against it:
- B5 — higher, 1.4
- B6 — higher, 1.1
- B7 — lower, 0.8
- B9 — the same, 1
- B10 — lower, 0.7

target: T3, human CD47 on Jurkat cells (human, UniProt Q08722 19-323); assay: MSD on Jurkat cells; blocks SIRP alpha-Fc binding
T3 construct: Endogenous CD47 of the cell lines; also called CD47-expressing Jurkat cells; CD47 on HL60 cells

Point of comparison: B2, EC50 0.29 µg/mL. Against it:
- B1 — within 1.5-fold, 0.24 µg/mL
- B11 — 3.2-fold lower, 0.09 µg/mL
- B12 — within 1.5-fold, 0.26 µg/mL
- B3 — 2.2-fold lower, 0.13 µg/mL
- B4 — 4.8-fold lower, 0.06 µg/mL

target: T1, recombinant human CD47 extracellular …; assay: ProteOn SPR; mAb captured, ECD monomer as analyte

Point of comparison: B3, Kd 3.53 nM. Against it:
- B1 — 2.7-fold higher, 9.55 nM
- B2 — 2-fold higher, 6.89 nM
- B4 — within 1.5-fold, 2.87 nM

target: T2, Cyno CD47 ECD protein, His-tagged, …; assay: ProteOn SPR; mAb captured, ECD monomer as analyte

Point of comparison: B3, Kd 3.71 nM. Against it:
- B1 — 3.6-fold higher, 13.5 nM
- B2 — 2.5-fold higher, 9.34 nM
- B4 — within 1.5-fold, 2.96 nM

target: T1, recombinant human CD47 extracellular …; assay: ProteOn SPR; mAb captured, ECD monomer as analyte; remark: another data set of the same source

Point of comparison: B7, Kd 2.62 nM. Against it:
- B5 — 2.6-fold higher, 6.69 nM
- B6 — 3.3-fold higher, 8.59 nM
- B8 — within 1.5-fold, 3.47 nM
- B9 — within 1.5-fold, 2.02 nM
- B10 — within 1.5-fold, 2.12 nM

target: T2, Cyno CD47 ECD protein, His-tagged, …; assay: ProteOn SPR; mAb captured, ECD monomer as analyte; remark: another data set of the same source

Point of comparison: B5, Kd 9.7 nM. Against it:
- B6 — within 1.5-fold, 9.23 nM
- B7 — 4.8-fold lower, 2.03 nM
- B8 — 2.8-fold lower, 3.46 nM
- B9 — 4.7-fold lower, 2.08 nM
- B10 — 6.3-fold lower, 1.55 nM

target: CD47 ECD-C15G mutant, His-tagged (human, UniProt Q08722 19-141, N-terminus Q1 cyclized as pyroglutamate (C47B161 complex); glycans at 5, 16, 32, 55, 93 except in the endoH-deglycosylated C47B161 complex); assay: Fab:CD47 complex isolated by chromatography and crystallized
Procedure: The His-tagged CD47 was deglycosylated and further purified by affinity chromatography. The complex CD47:Fab was prepared by mixing Fabs with excess CD47 at a molar ratio ranging from 1.2:1.0 to 1.5:1.0. The complex was incubated overnight at 4° C., separated from the uncomplexed species using size exclusion chromatography, and concentrated to 7.5-20 mg/mL in 20 mM HEPES pH 7.4, 100 mM NaCl, 5% glycerol. The concentrated complex was then used to set up crystallization trials using the sitting drop method at 20° C. and crystals were optimized by varying the protein to reservoir ratio.

B13: binds.
B14: binds.
B15: binds.
B16: binds.
B17: binds.

target: T4, recombinant human CD47 extracellular domain (ECD), His-tagged, dimer (human, UniProt Q08722 19-141); assay: MSD; CD47-ECD dimer binding to captured SIRP alpha-Fc, mAb 10 µg/ml
T4 construct: Dimeric fraction of the same His-tagged ECD; also called His-tagged CD47-ECD dimer protein

Point of comparison: B9, “% SIRP alpha Inhibition” value 99.8%. Against it:
- B5 — lower, 96.7%
- B6 — lower, 93%
- B7 — the same, 99.8%
- B8 — lower, 99.1%
- B10 — the same, 99.8%
